Test results from US20240252732A1 (IMMUNICOM, published 2024).

What was measured:
[1] = target: T1, soluble TNF receptor 2 (sTNF-R2) (human, UniProt P20333 23-257); assay: equilibrium KD; method not stated
T1 construct: extracellular domain
T1 sequence (looked up): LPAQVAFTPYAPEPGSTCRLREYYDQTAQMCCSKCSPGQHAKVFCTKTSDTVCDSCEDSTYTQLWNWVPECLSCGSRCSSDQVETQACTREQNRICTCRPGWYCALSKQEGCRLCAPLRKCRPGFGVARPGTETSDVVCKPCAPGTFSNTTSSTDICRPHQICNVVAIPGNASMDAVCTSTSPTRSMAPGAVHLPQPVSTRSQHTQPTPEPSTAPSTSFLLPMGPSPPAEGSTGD

[2] = target: T2, soluble TNF receptor 1 (sTNF-R1) (human, UniProt P19438 30-211); assay: equilibrium KD; method not stated
T2 construct: extracellular domain
T2 sequence (looked up): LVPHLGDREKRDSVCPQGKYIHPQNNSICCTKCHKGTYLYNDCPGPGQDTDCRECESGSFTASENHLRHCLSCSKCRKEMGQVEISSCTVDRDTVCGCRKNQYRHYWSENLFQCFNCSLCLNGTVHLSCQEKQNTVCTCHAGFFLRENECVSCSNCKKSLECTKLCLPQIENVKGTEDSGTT

B1: SEQ11 modified single chain TNF (scTNF) (ligand)
chain: THHHHHHHHHHAGGAENLYFQGSASSSSRTPSDKPVAHVVANPQAEGQLQWVNRRANALLANGVELRDNQLVVPSEGLYLIYSQVLFKGQGCPSTHVLLTHTISRIAVSYQTKVNLLSAIKSPCQRETPEGAEAKPWYEPIYLGGVFQLEKGDRLSAEINRPDYLDFDDDGQVYFGIIALGGGSGGGSGGGSGGGSSSRTPSDKPVAHVVANPQAEGQLQWVNRRANALLANGVELRDNQLVVPSEGLYLIYSQVLFKGQGCPSTHVLLTHTISRIAVSYQTKVNLLSAIKSPCQRETPEGAEAKPWYEPIYLGGVFQLEKGDRLSAEINRPDYLDFDDDGQVYFGIIALGGGSGGGSGGGSGGGSSSRTPSDKPVAHVVANPQAEGQLQWVNRRANALLANGVELRDNQLVVPSEGLYLIYSQVLFKGQGCPSTHVLLTHTISRIAVSYQTKVNLLSAIKSPCQRETPEGAEAKPWYEPIYLGGVFQLEKGDRLSAEINRPDYLDFDDDGQVYFGIIAL
notes: also called TNF variant trimer
Kd [1]: 12 nM | Kd [2]: 100 nM
